± gives the standard deviation of the averaged measurements.
Tested on: ATP
Test: switch fluorescence ratio, 500 uM ATP over buffer (Cy3 cluster intensity, sum of 5 cycles each) (fold (ratio)); higher = stronger signal-on switching upon ATP binding; sequences stand for … in TCGTCGGCAGCGTCAGATGTGTATAAGAGACAGTTTTTTTTTTTTTTTTTTTTTTTTT…TC
Conditions: aptamer strand: ATP DNA aptamer (quencher-CACCTGGGGGAGTATTGCGGAGGAAGG + anchor), 100 nM annealed; ATP concentration: 500 uM
Outline: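 After annealing to 100 nM quencher-labelled ATP aptamer, Cy3-labelled switching-strand clusters on a modified Illumina MiSeq flow-cell were imaged in selection buffer. A second image followed after 15 min with 500 uM ATP at 22 °C, and five such buffer/ATP cycles were done, each separated by NaOH stripping and re-annealing. The fluorescence ratio, averaged per switch-domain sequence, is summed target-cycle over summed buffer-cycle Cy3 intensity per cluster, with clusters outside 100-1000 RFU excluded.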
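Also: ATP exposure 15 min at 22 °C before imaging.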

With GCGATGCCTC the switch fluorescence ratio was 1.09 ± 0.043.
ATATGAGTGC showed a switch fluorescence ratio of 0.951 ± 0.07.
In the case of GTTTGTTTAG, the switch fluorescence ratio is reported as 1.011 ± 0.006.
Work on AGTAGTTATA yielded a switch fluorescence ratio of 1.03 ± 0.093.
AGGAAGGGGT gave a switch fluorescence ratio of 0.979 ± 0.033.
CATTTTGTGG was tested, and the switch fluorescence ratio was 0.987 ± 0.012.
CGAGGGGTAG showed a switch fluorescence ratio of 0.996 ± 0.026.
Work on ATGGGCGCGC yielded a switch fluorescence ratio of 0.982 ± 0.036.
In the case of GATACTCGTG, the switch fluorescence ratio is reported as 0.97 ± 0.032.
CCGTGCACGG showed a switch fluorescence ratio of 0.978 ± 0.021.
TAGAGTGGGG showed a switch fluorescence ratio of 0.994 ± 0.023.
GGGGCCCCTC was tested, and the switch fluorescence ratio was 1.04 ± 0.092.
TCGGTTCATT showed a switch fluorescence ratio of 0.9962 ± 0.004.
For TTCTACCAGC, the switch fluorescence ratio was 1.01 ± 0.011.
AAAGTTGCGG gave a switch fluorescence ratio of 1.016 ± 0.0045.
Work on CGGTGGACTA yielded a switch fluorescence ratio of 1.008 ± 0.01.
Work on AGAGAGATCC yielded a switch fluorescence ratio of 1.02 ± 0.058.
With ATATACTAGA the switch fluorescence ratio was 1.03 ± 0.049.
Work on TAATTGCCTT yielded a switch fluorescence ratio of 1.02 ± 0.017.
For GGAGTGGTTC, the switch fluorescence ratio was 0.999 ± 0.013.
ATACTTTTGC showed a switch fluorescence ratio of 0.952 ± 0.034.
CCCGGAGGCA gave a switch fluorescence ratio of 1.057 ± 0.004.
AAGATACGTT gave a switch fluorescence ratio of 1.03 ± 0.011.
For ATAACTGCGG, the switch fluorescence ratio was 1.02 ± 0.012.
For CGTATATTAG, the switch fluorescence ratio was 0.96 ± 0.014.
For TAGGGGTCGG, the switch fluorescence ratio was 0.981 ± 0.048.
For TGGGACTTTT, the switch fluorescence ratio was 1.01 ± 0.053.
TTGAGGGGTT was tested, and the switch fluorescence ratio was 0.979 ± 0.0086.
AGTTTTTGGT was tested, and the switch fluorescence ratio was 0.97 ± 0.028.
AATTCAACAG was tested, and the switch fluorescence ratio was 1.01 ± 0.03.
Sequence AAGTTGGGGG has a switch fluorescence ratio of 1.01 ± 0.025.
TGGGCTGGGG was tested, and the switch fluorescence ratio was 1.04 ± 0.023.
GTTGTGGTTT was tested, and the switch fluorescence ratio was 0.975 ± 0.034.
With TGCCGCCGGG the switch fluorescence ratio was 1.03 ± 0.011.
TGTTTTTTGA showed a switch fluorescence ratio of 0.99 ± 0.011.
Sequence TGGATGGGGT has a switch fluorescence ratio of 0.973 ± 0.027.
Work on ATGGGCAGGT yielded a switch fluorescence ratio of 0.985 ± 0.02.
GGGTTGGGGT gave a switch fluorescence ratio of 0.997 ± 0.041.
In the case of TGATGGGATG, the switch fluorescence ratio is reported as 1.01 ± 0.038.
AAATAAAATT gave a switch fluorescence ratio of 0.982 ± 0.03.
Work on AAGCGGGCAG yielded a switch fluorescence ratio of 1 ± 0.02.
Work on ATCACTGGGT yielded a switch fluorescence ratio of 0.9976 ± 0.0051.
In the case of CCGCCTTGTT, the switch fluorescence ratio is reported as 1.11 ± 0.044.
For TTTCGAAAGG, the switch fluorescence ratio was 0.983 ± 0.043.
AAGGAATTAA showed a switch fluorescence ratio of 1.07 ± 0.12.
With GCTTTTTCCA the switch fluorescence ratio was 0.975 ± 0.035.
With GCTCTGTGGG the switch fluorescence ratio was 0.967 ± 0.024.
Work on AGGAGGCTTC yielded a switch fluorescence ratio of 0.983 ± 0.029.
Sequence TCGGGGGGGC has a switch fluorescence ratio of 1.01 ± 0.072.
CGCACTGTGG was tested, and the switch fluorescence ratio was 1.028 ± 0.0031.
Work on ATGTAAATTT yielded a switch fluorescence ratio of 1.01 ± 0.005.
TTAGTTTGAA was tested, and the switch fluorescence ratio was 0.968 ± 0.012.
AGTCTAGGGC gave a switch fluorescence ratio of 1.04 ± 0.017.
Sequence TCTAAAGGAT has a switch fluorescence ratio of 1.006 ± 0.004.
In the case of CCACGAGATA, the switch fluorescence ratio is reported as 1.115 ± 0.0033.
For CGAGGGGAGT, the switch fluorescence ratio was 1.006 ± 0.0011.
ATTATGGGGA showed a switch fluorescence ratio of 0.995 ± 0.016.
AGGGGAATAT gave a switch fluorescence ratio of 1.03 ± 0.017.
TTGTTGTAGG was tested, and the switch fluorescence ratio was 0.993 ± 0.041.
TGGAGGAGGA gave a switch fluorescence ratio of 0.982 ± 0.025.
In the case of GAATTATGGC, the switch fluorescence ratio is reported as 1.01 ± 0.085.
CGGTGGGTAA showed a switch fluorescence ratio of 1.01 ± 0.026.
Sequence CGGCTATGTG has a switch fluorescence ratio of 0.985 ± 0.027.
AATAGATTCG gave a switch fluorescence ratio of 0.982 ± 0.017.
GGGTAAGTGC was tested, and the switch fluorescence ratio was 1.047 ± 0.0017.
Work on GGTTTTCGGC yielded a switch fluorescence ratio of 0.9771 ± 0.0087.
TGATGGTAGG showed a switch fluorescence ratio of 0.981 ± 0.031.
AGGGGGCGTT showed a switch fluorescence ratio of 1.02 ± 0.042.
Work on TCTAAGGGTG yielded a switch fluorescence ratio of 1.014 ± 0.01.
CAATTCAGAT showed a switch fluorescence ratio of 0.952 ± 0.028.
Sequence TGGTTAGTTT has a switch fluorescence ratio of 0.997 ± 0.016.
ATCGAGCCGG was tested, and the switch fluorescence ratio was 0.98 ± 0.049.
ATCCGTATGT was tested, and the switch fluorescence ratio was 1.05 ± 0.014.
Work on TTTGTGTGGT yielded a switch fluorescence ratio of 0.978 ± 0.017.
TGTAAAGGCG showed a switch fluorescence ratio of 0.953 ± 0.039.
With AGCGTTAGTG the switch fluorescence ratio was 1.06 ± 0.013.
Work on CCAAAGATTG yielded a switch fluorescence ratio of 0.993 ± 0.064.
AGACGGCGGG showed a switch fluorescence ratio of 0.996 ± 0.012.
In the case of TATGGGCAGG, the switch fluorescence ratio is reported as 1.04 ± 0.022.
AATGGTTCGG showed a switch fluorescence ratio of 0.962 ± 0.036.
For AGCTAAAACG, the switch fluorescence ratio was 1.14 ± 0.19.
Work on TTTTCTGTGT yielded a switch fluorescence ratio of 0.9398 ± 0.0077.
GAGGATTATT was tested, and the switch fluorescence ratio was 0.9694 ± 0.0059.
Sequence TTAGGTTAAA has a switch fluorescence ratio of 1.06 ± 0.12.
TTATGGCCTA was tested, and the switch fluorescence ratio was 1.01 ± 0.017.
Work on TTTTTATTA yielded a switch fluorescence ratio of 1.001 ± 0.0052.
TGACGGCTGG was tested, and the switch fluorescence ratio was 1.026 ± 0.0044.
GGGCACTGGT gave a switch fluorescence ratio of 1.04 ± 0.032.
For AAATCTCATC, the switch fluorescence ratio was 1.03 ± 0.014.
In the case of TGTCGAAAGA, the switch fluorescence ratio is reported as 0.999 ± 0.013.
AACATGCGCA was tested, and the switch fluorescence ratio was 0.9712 ± 0.0047.
AAGAGTATTG was tested, and the switch fluorescence ratio was 1 ± 0.02.
Sequence ATTTGGTTTC has a switch fluorescence ratio of 0.991 ± 0.025.
In the case of GCGGGGAGCG, the switch fluorescence ratio is reported as 1.001 ± 0.0031.
Sequence GGTGTGCGGA has a switch fluorescence ratio of 1.02 ± 0.024.
TTTTCACAAT gave a switch fluorescence ratio of 1.17 ± 0.21.
In the case of GGTGTAGGCA, the switch fluorescence ratio is reported as 0.987 ± 0.03.
GTTGCGGAAT showed a switch fluorescence ratio of 1.03 ± 0.023.
Sequence CATCGGGACG has a switch fluorescence ratio of 1.04 ± 0.053.
With TTGTCAATGT the switch fluorescence ratio was 1.06 ± 0.053.
Sequence GGGGCCGTTG has a switch fluorescence ratio of 0.949 ± 0.012.
Sequence TAAATTTGGG has a switch fluorescence ratio of 0.974 ± 0.017.
In the case of AGTGTTGCAG, the switch fluorescence ratio is reported as 0.98 ± 0.048.
GCGGGAAGGG was tested, and the switch fluorescence ratio was 0.995 ± 0.033.
GATGAAATGG showed a switch fluorescence ratio of 1.02 ± 0.013.
GTTTGAATTG showed a switch fluorescence ratio of 0.9879 ± 0.0049.
For GCCCACGCTG, the switch fluorescence ratio was 1.02 ± 0.011.
Work on TATAAAATGT yielded a switch fluorescence ratio of 0.993 ± 0.036.
Work on AATATGTGGG yielded a switch fluorescence ratio of 0.975 ± 0.024.
Sequence AAACGGGGAT has a switch fluorescence ratio of 0.992 ± 0.011.
In the case of CCGGAGATTT, the switch fluorescence ratio is reported as 1.57 ± 0.028.
For ATATCTAAGT, the switch fluorescence ratio was 0.9984 ± 0.0034.
For GACAGGTGGG, the switch fluorescence ratio was 1.07 ± 0.059.
With TGGGGAGTAA the switch fluorescence ratio was 1.015 ± 0.0092.
TGGTTATATT showed a switch fluorescence ratio of 1.02 ± 0.026.
In the case of GGGAAAGGGT, the switch fluorescence ratio is reported as 1 ± 0.014.
CGAGGGCTGA showed a switch fluorescence ratio of 1.02 ± 0.015.
With AGATTTGCTA the switch fluorescence ratio was 1.004 ± 0.0078.
TAGTCGGCGC was tested, and the switch fluorescence ratio was 1 ± 0.047.
In the case of CCGGGTTTAC, the switch fluorescence ratio is reported as 1.621 ± 0.013.
AATGTGTACT showed a switch fluorescence ratio of 1.03 ± 0.032.
AAGTGAGGCA was tested, and the switch fluorescence ratio was 0.963 ± 0.06.
In the case of AACTGTGGAA, the switch fluorescence ratio is reported as 0.991 ± 0.015.
Work on TCCGGGAGGG yielded a switch fluorescence ratio of 1.02 ± 0.053.
For AACAGTGTAG, the switch fluorescence ratio was 1 ± 0.013.
TAGCTGGATA showed a switch fluorescence ratio of 0.9837 ± 0.005.
With TAGTCCAAAT the switch fluorescence ratio was 0.9738 ± 0.0018.
Work on GGGGACAGAT yielded a switch fluorescence ratio of 0.991 ± 0.017.
GAATTCTGAG gave a switch fluorescence ratio of 1.02 ± 0.04.
GGGACGGTAG was tested, and the switch fluorescence ratio was 1.04 ± 0.034.
In the case of CAAGTGACTT, the switch fluorescence ratio is reported as 1.02 ± 0.016.
In the case of GGGGCGGGGT, the switch fluorescence ratio is reported as 1.01 ± 0.018.
In the case of TTGGTGGTGG, the switch fluorescence ratio is reported as 1.01 ± 0.053.
TATGCTGGAG was tested, and the switch fluorescence ratio was 1.02 ± 0.0047.
CAGGGGGCCG showed a switch fluorescence ratio of 1.01 ± 0.078.
For TGGTCCAGCG, the switch fluorescence ratio was 0.998 ± 0.015.
In the case of TTAATAAATT, the switch fluorescence ratio is reported as 1.03 ± 0.018.
TTCGATTTTT was tested, and the switch fluorescence ratio was 0.981 ± 0.048.
Work on ACCGACGGGA yielded a switch fluorescence ratio of 2.72 ± 2.
CTAAGGGTTC gave a switch fluorescence ratio of 0.999 ± 0.015.
For TGTTGAATTT, the switch fluorescence ratio was 0.958 ± 0.016.
Work on AGCGTTTTCA yielded a switch fluorescence ratio of 0.994 ± 0.04.
Work on GGAAAATAAT yielded a switch fluorescence ratio of 1.01 ± 0.035.
For GGGATTATGT, the switch fluorescence ratio was 0.97 ± 0.015.
In the case of TCGTACGAAG, the switch fluorescence ratio is reported as 1 ± 0.032.
AGTATGCATA showed a switch fluorescence ratio of 0.951 ± 0.016.
Sequence GGGTTTACCT has a switch fluorescence ratio of 1.05 ± 0.051.
Sequence CCGGGTTGGG has a switch fluorescence ratio of 1.02 ± 0.036.
Sequence CTTAGAATTG has a switch fluorescence ratio of 1.02 ± 0.012.
GGGGGCGTTA was tested, and the switch fluorescence ratio was 1.02 ± 0.026.
TCGTCAACGG showed a switch fluorescence ratio of 1.01 ± 0.023.
TGTTTTGCGG showed a switch fluorescence ratio of 0.9696 ± 0.0063.
Sequence GCCTATGAGG has a switch fluorescence ratio of 0.993 ± 0.038.
With TTTACGGTAA the switch fluorescence ratio was 1.15 ± 0.019.
In the case of TAAGGCGGTG, the switch fluorescence ratio is reported as 1.04 ± 0.061.
AAGGGGACTT gave a switch fluorescence ratio of 1.02 ± 0.037.
For CACTCTGTCA, the switch fluorescence ratio was 1.04 ± 0.022.

Reference: the supplement of paper PMC10126150
